Data on one molecule can be found in publication PMC12613623.

Assay [1] deals with T1, murine SIRT3 recombinant protein (mouse).
T1 sequence (Q8R104 whole entry, looked up): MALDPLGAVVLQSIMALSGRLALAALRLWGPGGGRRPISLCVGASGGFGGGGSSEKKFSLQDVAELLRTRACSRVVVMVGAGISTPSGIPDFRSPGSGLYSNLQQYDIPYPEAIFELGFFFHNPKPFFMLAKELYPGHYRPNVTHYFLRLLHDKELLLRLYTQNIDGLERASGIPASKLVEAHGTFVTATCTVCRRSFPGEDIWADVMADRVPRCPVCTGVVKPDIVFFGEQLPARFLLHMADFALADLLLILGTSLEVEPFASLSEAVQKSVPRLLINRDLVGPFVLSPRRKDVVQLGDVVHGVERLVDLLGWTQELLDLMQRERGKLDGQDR
As to the kind of experiment: SPR; SIRT3 immobilised on a carboxyl sensor chip; ATP5O diluted in running buffer and injected from low to high concentrations; kinetics analysed with Trace Drawer. (Surface plasmon resonance follows binding to a sensor surface in real time, without labels.)

The target is the same in assay [2]. In words: ITC; Nano ITC (TA Instruments); ATP5O titrated into a SIRT3-containing solution at 25 °C; NanoAnalyze. On the technique in general: ITC needs no label: the signal is the heat of the interaction.

B1: murine ATP5O recombinant protein (natural protein)
chain: FAKLVRPPVQVYGIEGRYATALYSAASKEKKLDQVEKELLRVGQLLKDPKVSLAVLNPYIKRTVKVKSLNDITKREKFSPLTANLMNLLAENGRLGNTQGIISAFSTIMSVHRGEVPCTVTTASPLDDAVLSELKTVLKSFLSPNQILKLEIKTDPSIMGGMIVRIGEKYVDMSAKSKIQKLSKAMREML
For orientation: Kd means the free concentration of one partner at which half of the binding sites on the other are occupied at equilibrium, for simple one-to-one binding. By koff is commonly meant the first-order rate constant of dissociation. One may read the kon as the rate constant with which the complex forms. As to B1, in assay [1], the dissociation constant (Kd) was 0.0653 nM, the koff is 5.54e-08 s⁻¹ and the kon stood at 850 M⁻¹ s⁻¹. Also, in assay [2], the Kd is 1310 nM.
